# In the domain aggregation screens of Martell et al. (2025):
# Test: soluble fraction after stress (log2 fold change); higher = more stays soluble; pooled small domains, quantitative proteomics
# Details: stress: 50 degC
# Procedure, shortened: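 The stress applied to every library was 50°C. These custom libraries of small protein domains were pooled and measured at high throughput with quantitative proteomics as the read-out. Aggregation propensity is expressed as the base-two logarithm of the fold change in how much of each protein remains soluble. The higher the value, the more of that protein stays in solution.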
row,Sequence,soluble fraction (log2)
1,HMPDAGQRRYLELVTALAGARSLTIDDLERRAIRFAEWGNGYSGRTARQFIDTLLQDRGVAEEL,-0.405
2,HMHDHKTRLQELAAQRFGSAPSYLLTADGPAHDRRFHASVEVGGRSFGPGTGKSKKRAEQVAAHIAWDALS,0.394
3,HMQVAPDLMQRLTSQGHVDEKLSDALVHARQITNFEGRRRQMQFIGKLMRKLSEESIEAVKDALNEQRM,-0.264
4,HMETLKINTHLGTLNLKKRGKKGTWQINIYFKNIEGDNHYRQSTGTNQLELAKAKAMNMITTEYSNRLAGI,-1.69
5,HMRDYKTHLQEVLQSKGEVNIWYKLIDEKGPDHNKKFVMQVGIDSKILGFGEGKSKKEAEQVAARKALDNI,-0.118
6,HMEAVGLTPRQGDVLALLLQGKPNKLIARDLNLSVETVKDHVAAVLRALGVSTRTQAVLAVSQMQQQAAQ,-0.248
7,HMKIEEIAYSTFISMLDKGEVSKVELKDNLIYIETKADDKTIYTTGRMEDPDLTNRLIEAGVDFTEIE,-0.317
8,HMLKEGQYSPNHFHWHKMEDIINRGGGTLLIRVYNSLPDEEIDRESDVTVHMDGVTRTVPAGTQLRLE,-0.229
9,HMQIDRLFDIVYTLLRKKSATAAELAERFGVSKRTILRDIETLSVAGIPILTSPGKGGGVSISSSF,-0.881
10,HMSASNSIDFANRMIYNKNQVAVFNFGKHMGRPVLEVLKSDPSYYDWMMKGDFPMDTKRKLTEIKLQGF,-0.755
11,HMATPAFEMYKVRRGDTPAGLAKEWGFPDMASFYRINPDARSDWKRGLQLVKPMNEMAVLQATA,-0.255
12,HMDYADISYKIFMNHIKNGQVERVELSGDPRIMGKLKDGTYFVTDNPRTENFKEFLLLNNVQVIETN,0.43
13,HMRGRFGNAAPARNLGDHPQGGAINVKAGRYGPYVSWGKVNATLPKDSDPEKVTLEEAVALIAAKQSGQG,-0.103
14,HMEDPPISQEQRQALFKMAHDHLGKDEGNKAILTLIQSHGLNSTTGMKVSTYNTIMEELVSTIQSLAA,-0.0686
15,HMQKTIDWSQVDKEQYLSAMERSPVNDLEIKAILAKALTSDINNRELFMKGLDHSYYFEGYQLFKSE,-0.281
16,HMKEQIKVPDLSNKTPEEAKKELNTLGLGARKGGEESSDTVEEGLITRQEPAAGEQVDKNTQILFYVSTGK,0.0624
17,HMGIAKYRQVTEWIQNRIATGELNRGDQIESENDISRTFGISRQTVRHALGLLEQQGILTRIQGRGTFVRD,-0.661
18,HMNMAEETLDTAAKILKAAEEEFMEKGYGNAKMMSIAARAGVSHSMLHYYYRSKGKLFQMIFDEKA,-1.4
19,HMSEPQYKVLFSNLDDRDGGAIVTALGAMNVPYKYNDTGTALLVPADRVYDARLQLASQGLPRG,0.18

row,Sequence,soluble fraction (log2)
1,HMADRVFGHIPGVAVGSIFPDRRSLSQTGVHRPTQAGISGNKTDGADSIVVSGGYRDDRDYGDLIIYTG,-0.000463
2,HMEFTVFMNSAGGSKLQVVKTVKELTGLGLKEAKAIVDGSPGPVKEGLSKADAEAMLAKLQEAGADVEL,-0.0948
3,HMGVRPAALGFQKVRIEPQVGTFREASGDVITPRGLIHAEWKRDEENALHLHYTLPDGVAYA,-0.0327
4,HMTSVAYVIDRINKIQNVYSELEALGLKDEFEKILSNIEDLSKKDIREIKTLLKTKGVIKNLDDLNVKL,-0.0059
5,HMGAIVTGTVVEIRSDVVIVNAGLKSEGVVPIEQFRNEAGELEVSVGDEVKVALDALEDGFGETRLS,-0.329
6,HMHFENEETFVLPLVREGFSEQQQLEMVDRLLFDANTDNPRWIIDWMASELPSTQRELLLDLEKRLAEVRS,-0.117
7,HMHSKQRDAIFENLRSRKDHPTAEEIYLSLKPAMPAISLATVYRNLAQLENEGLILRLGSGGSARYDGDT,-0.441
8,HMNHHTEQQLKALSNKVKDHRMRMRLLAVAHFKAGKNKADVARTLNVSRRMVNEWVANYFKGGVSALES,-3.6
9,HMELDMTFGEKIQKLRKESGLSQEELSYQLGVSRQAISKWERDSGYPETEKIVRMSKIFDVTLDYLLNE,-0.458
10,HMPIHAGERLTLRLAGEGREAGQAIGYLEDGTLVIVERARHLIGQDVTVEVTRTLQTAGGRLVFAHLVE,-0.531
11,HMLEQISDINILSGYAKEVIAENPKTVSDYLSGKAAAFQALVGQVMKKTGGRGNPVIIQEILKRLIHKK,0.116
12,HMRRSSQQLTLTEVSTIKEMVTSEEYRHVPTGTLALLAQRLRKVFASSSTWYRLVRIYKWRRPRGRIH,0.549
13,HMRQPRGQRVTVREASSLLPFLFAHLTDRSRSAVKSLLRHGQIWVNGRVTTHFDMPLRPGDTVLISHERG,-0.347
14,HMNPEDDLLKAIIMKYFSNAQVQVDKNVIEYLLKRVDRDYQNLYNILEKINILSLQRKSKITTHLIRDIM,-0.432
15,HMDLANLQNGQTLPLQRDVEVISIPFGKTISLSEDSVVSIMQAKGSSVSVAYEGRLYLIEGSNLDALGLEP,-0.736
16,HMFFDKIIVDFLADGSRIDKYISTLYPDISRTHIQRLIAEQFILVNDSVVKSNYKLSTNDVVLIHIPEA,-3.33
17,HMGAQKITIPDFSNQEATQVYAELKNMGLEYTESRMNHPSIASGYVIKTEPTKGSEVKAGTTVTVYVSLG,-0.0535
18,HMRMQRYYLTDMSEKGREALPGVLDEMGYAGRYTMSDNSIAINSNMIVLSKAIKRAEDIAHNE,-0.086
19,HMAEPAEDLLSLEGMDKGLAYQLASNGVVTREDLAELATDDLLEIREMDAEQAAALIMKAREHWFEAEQQ,0.211
